Measured values published in patent US20140154256A1 (published 2014).

How the values were obtained:
recombinant human IL-1β [1] = biological target: T1, recombinant human IL-1β (human, UniProt P01584 117-269); experiment: SPR (Biacore 3000); antibody captured via goat anti-human IgG Fc, antigen injected, 1:1 Langmuir fit
T1 construct: also called rhIL-1β; hIL-1β
Experimental: (§1) The kinetics of DVD-Ig binding to rhIL1-α and rhIL1-β was determined by surface plasmon resonance-based measurements with a Biacore 3000 instrument (Biacore AB, Uppsala, Sweden) using HBS-EP (10 mM HEPES, pH 7.4, 150 mM NaCl, 3 mM EDTA, and 0.005% surfactant P20) at 25° C. All chemicals were obtained from Biacore AB (Uppsala, Sweden) or otherwise from a different source as described herein. Approximately, 5000 RU of goat anti-human IgG Fcγ fragment specific polyclonal antibody (Pierce Biotechnology Inc, Rockford, Ill.) diluted in 10 mM sodium acetate (pH 4.5) was directly immobilized across a CM5 research grade biosensor chip using a standard amine coupling kit according to manufacturer's instructions and procedures at 25 mg/ml. Unreacted moieties on the biosensor surface were blocked with ethanolamine. Modified carboxymethyl dextran surface in flowcell 2 and 4 was used as a reaction surface. Unmodified carboxymethyl dextran without goat anti-human IgG in flow cell 1 and 3 was used as the reference surface. For kinetic analysis, rate equations derived from the 1:1 Langmuir binding model were fitted simultaneously to association and dissociation phases of all ten injections (using global fit analysis) using the Bioevaluation 4.0.1 software. Purified DVD-Ig samples were diluted in HEPES-buffered saline for capture across goat anti-human IgG Fc specific reaction surfaces and injected over reaction matrices at a flow rate of […]. The association and dissociation rate constants, kon (M-1s-1) and koff (s−1) were determined under a continuous flow rate of […]. […] The equilibrium dissociation constant (M) of the reaction between DVD-Ig and rhIL1α/β was then calculated from the kinetic rate constants by the following formula: KD=koff/kon. Aliquots of rhIL1α/β samples were also simultaneously injected over a blank reference and reaction CM surface to record and subtract any nonspecific binding background to eliminate the majority of the refractive index change and injection noise. Surfaces were regenerated with two subsequent […] injections of 10 mM Glycine (pH 1.5) at a flow rate of […]. The anti-Fc antibody immobilized surfaces were completely regenerated and retained their full capture capacity over twelve cycles.

recombinant human IL-1α [2] = biological target: T2, recombinant human IL-1α (human, UniProt P01583 113-271); experiment: as above
T2 construct: Bought recombinant protein; also called rhIL-1α; hIL-1α
T2 sequence (looked up): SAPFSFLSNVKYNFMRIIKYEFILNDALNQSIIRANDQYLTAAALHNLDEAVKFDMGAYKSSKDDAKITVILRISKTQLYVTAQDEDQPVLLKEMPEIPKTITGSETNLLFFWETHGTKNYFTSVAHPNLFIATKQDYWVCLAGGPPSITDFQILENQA
Experimental: as §1

recombinant human IL-1β [3] = biological target: T1, recombinant human IL-1β; experiment: SPR (Biacore); hIL-1β as 2nd antigen, DVD1-Ig already occupied by hIL-1α
Experimental: (§2) The equilibrium dissociation constant (M) of the reaction between DVD-Ig and rhIL1α/β was then calculated from the kinetic rate constants by the following formula: KD=koff/kon. Aliquots of rhIL1α/β samples were also simultaneously injected over a blank reference and reaction CM surface to record and subtract any nonspecific binding background to eliminate the majority of the refractive index change and injection noise. Surfaces were regenerated with two subsequent […] injections of 10 mM Glycine (pH 1.5) at a flow rate of […]. The anti-Fc antibody immobilized surfaces were completely regenerated and retained their full capture capacity over twelve cycles. The apparent stoichiometry of the captured DVD-Ig-rhIL1α/β complex was calculated under saturating binding conditions (steady-state equilibrium) using the following formula: […]
(§3) In addition, tetravalent dual-specific antigen binding of DVD-Ig was also analyzed by Biacore (Table 14). DVD-Ig was first captured via a goat anti-human Fc antibody on the Biacore sensor chip, and the first antigen was injected and a binding signal observed. As the DVD-Ig was saturated by the first antigen, the second antigen was then injected and the second signal observed. This was done either by first injecting IL-1β then IL-1α or by first injecting IL-1α followed by IL-1β for DVD2-Ig. In either sequence, a dual-binding activity was detected. […]

recombinant human IL-1β [4] = biological target: T1, recombinant human IL-1β; experiment: SPR (Biacore), saturating conditions
recombinant human IL-1α [5] = biological target: T2, recombinant human IL-1α; experiment: SPR (Biacore), saturating conditions
recombinant human IL-1α [6] = biological target: T2, recombinant human IL-1α; experiment: SPR (Biacore); hIL-1α as 2nd antigen, DVD1-Ig already occupied by hIL-1β
Experimental: as §2, §3

recombinant human IL-1β [7] = biological target: T1, recombinant human IL-1β; experiment: cell-based or functional assay
recombinant human IL-1α [8] = biological target: T2, recombinant human IL-1α; experiment: cell-based or functional assay
recombinant human IL-1α [9] = biological target: T2, recombinant human IL-1α; experiment: SPR (Biacore)
Experimental: as §2, with “Purified DVD-Ig samples were diluted in HEPES-buffered saline for capture across goat anti-human IgG Fc specific reaction surfaces and injected over reaction matrices at a flow rate of […]. The association and dissociation rate constants, kon (M-1s-1) and koff (s−1) were determined under a continuous flow rate of […]. […] The equilibrium” for “The equilibrium”
(§4) The affinity of the two DVD-Igs to hIL-1 as compared to the affinity of chimeric Abs to hIL-1 was similar as indicated by the evaluation of the stoichiometry to IL-1. Both chimeric Abs, being bivalent monospecific, bound to IL-1α and IL-1β on Biocore with a stoichiometry of 1.6 and 1.7, respectively. This is common for an IgG due to inter-molecular interference when antibodies are immobilized densely on the Biacore sense chip resulting in stoichiometry being in the range from 1.5 to 2.0.

recombinant human IL-1β [10] = biological target: T1, recombinant human IL-1β; experiment: SPR (Biacore); hIL-1β as 1st antigen
Experimental: as §2, §3

recombinant human IL-1β [11] = biological target: T1, recombinant human IL-1β; experiment: cell-based or functional assay; remark: listed apart in the source
recombinant human IL-1α [12] = biological target: T2, recombinant human IL-1α; experiment: cell-based or functional assay; remark: listed apart in the source
recombinant human IL-1α [13] = biological target: T2, recombinant human IL-1α; experiment: SPR (Biacore); hIL-1α as 1st antigen
Experimental: as §2, §3

recombinant human IL-1β [14] = biological target: T1, recombinant human IL-1β; experiment: SPR (Biacore); hIL-1β as 2nd antigen, DVD2-Ig already occupied by hIL-1α
Experimental: as §2, §3

recombinant human IL-1α [15] = biological target: T2, recombinant human IL-1α; experiment: SPR (Biacore); hIL-1α as 2nd antigen, DVD2-Ig already occupied by hIL-1β
Experimental: as §2, §3

recombinant human IL-1β [16] = biological target: T1, recombinant human IL-1β; experiment: SPR (Biacore)
Experimental: as §2, with “Purified DVD-Ig samples were diluted in HEPES-buffered saline for capture across goat anti-human IgG Fc specific reaction surfaces and injected over reaction matrices at a flow rate of […]. The association and dissociation rate constants, kon (M-1s-1) and koff (s−1) were determined under a continuous flow rate of […]. […] The equilibrium” for “The equilibrium”
as §4

B1: hIL-1α/βDVD1-Ig (bispecific antibody, human IgG1, kappa)
heavy: not shown
light: NIVLTQSPASLAVSLGQRATISCRASESVDSYGNSYMHWYQQKPGQPPKLLIYLASNLESGVPARFSGSGSRTDFTLTIDPVEADDAATYYCQQNNEDPFTFGSGTKLEIKRNIQMTQTTSSLSASLGDRVTISCRASQDISNCLNWYQQKPDGTVKLLIYYTSRLHSGVPSRFSGSGSGTDYSLTISNLEQEDIATYFCQQGKTLPYAFGGGTKLEINRTVAAPSVFIFPPSDEQLKSGTASVVCLLNNFYPREAKVQWKVDNALQSGNSQESVTEQDSKDSTYSLSSTLTLSKADYEKHKVYACEVTHQGLSSPVTKSFNRGEC
notes: 13F5.G5 variable domains fused directly (no linker) to the N-terminus of 3D12.E3 variable domains, human Cγ1/Cκ; also called hIL-1a/bDVD1-Ig
Kd (recombinant human IL-1β [1]): 2.6 nM | koff (recombinant human IL-1β [1]): 0.00159 s⁻¹ | kon (recombinant human IL-1β [1]): 609000 M⁻¹ s⁻¹ | Kd (recombinant human IL-1α [2]): 2.83 nM | koff (recombinant human IL-1α [2]): 0.000105 s⁻¹ | kon (recombinant human IL-1α [2]): 37000 M⁻¹ s⁻¹ | Stoichiometry hILβ:DVD-Ig (recombinant human IL-1β [3]): 1 | Stoichiometry (recombinant human IL-1β [4]): 1.5 | Stoichiometry (recombinant human IL-1α [5]): 1.8 | Stoichiometry hIL1α:DVD-Ig (recombinant human IL-1α [6]): 1.1 | Potency (IC50) M, MRC-5 bioassay (recombinant human IL-1β [7]): 3.1 nM | Potency (IC50) M, MRC-5 bioassay (recombinant human IL-1α [8]): 2.3 nM | fold lower affinity than the chimeric 3D12.E3 Ab (recombinant human IL-1α [9]): 2 to 3 fold | Stoichiometry hILβ:DVD-Ig (recombinant human IL-1β [10]): 1.5 | dual-inhibition activity, MRC-5 assay with equal amounts of hIL-1α and hIL-1β both present (recombinant human IL-1β [11]): 2.2 nM | dual-inhibition activity, MRC-5 assay with equal amounts of hIL-1α and hIL-1β both present (recombinant human IL-1α [12]): 2.2 nM | Stoichiometry hIL1α:DVD-Ig (recombinant human IL-1α [13]): 2.3

B2: hIL-1α/βDVD2-Ig (bispecific antibody, human IgG1, kappa)
heavy: not shown
light: NIVLTQSPASLAVSLGQRATISCRASESVDSYGNSYMHWYQQKPGQPPKLLIYLASNLESGVPARFSGSGSRTDFTLTIDPVEADDAATYYCQQNNEDPFTFGSGTKLEIKRADAAPNIQMTQTTSSLSASLGDRVTISCRASQDISNCLNWYQQKPDGTVKLLIYYTSRLHSGVPSRFSGSGSGTDYSLTISNLEQEDIATYFCQQGKTLPYAFGGGTKLEINRTVAAPSVFIFPPSDEQLKSGTASVVCLLNNFYPREAKVQWKVDNALQSGNSQESVTEQDSKDSTYSLSSTLTLSKADYEKHKVYACEVTHQGLSSPVTKSFNRGEC
notes: 13F5.G5 V - linker (AKTTPP heavy, ADAAP light) - 3D12.E3 V - human Cγ1/Cκ; also called hIL-1a/bDVD2-Ig
Stoichiometry hILβ:DVD-Ig (recombinant human IL-1β [14]): 1.3 | Stoichiometry hIL1α:DVD-Ig (recombinant human IL-1α [15]): 1.2 | fold higher affinity than DVD1-Ig (recombinant human IL-1β [16]): 3 fold | fold lower affinity than the chimeric 3D12.E3 Ab (recombinant human IL-1α [9]): 3 fold | Stoichiometry hILβ:DVD-Ig (recombinant human IL-1β [10]): 1.6 | dual-inhibition activity, MRC-5 assay with equal amounts of hIL-1α and hIL-1β both present (recombinant human IL-1β [11]): 1.2 nM | dual-inhibition activity, MRC-5 assay with equal amounts of hIL-1α and hIL-1β both present (recombinant human IL-1α [12]): 1.2 nM | Stoichiometry hIL1α:DVD-Ig (recombinant human IL-1α [13]): 1.8
